The assay deals with T1, MBP-human TRIM25-Flag (human, UniProt Q14258 1-630).
T1 construct: human TRIM25
The assay is described as follows: pull-down. The settings on record: both partners purified.

This is an account of results in PMC3510253 (PLoS Pathogens, 2012).

T1 sequence (Q14258 whole entry): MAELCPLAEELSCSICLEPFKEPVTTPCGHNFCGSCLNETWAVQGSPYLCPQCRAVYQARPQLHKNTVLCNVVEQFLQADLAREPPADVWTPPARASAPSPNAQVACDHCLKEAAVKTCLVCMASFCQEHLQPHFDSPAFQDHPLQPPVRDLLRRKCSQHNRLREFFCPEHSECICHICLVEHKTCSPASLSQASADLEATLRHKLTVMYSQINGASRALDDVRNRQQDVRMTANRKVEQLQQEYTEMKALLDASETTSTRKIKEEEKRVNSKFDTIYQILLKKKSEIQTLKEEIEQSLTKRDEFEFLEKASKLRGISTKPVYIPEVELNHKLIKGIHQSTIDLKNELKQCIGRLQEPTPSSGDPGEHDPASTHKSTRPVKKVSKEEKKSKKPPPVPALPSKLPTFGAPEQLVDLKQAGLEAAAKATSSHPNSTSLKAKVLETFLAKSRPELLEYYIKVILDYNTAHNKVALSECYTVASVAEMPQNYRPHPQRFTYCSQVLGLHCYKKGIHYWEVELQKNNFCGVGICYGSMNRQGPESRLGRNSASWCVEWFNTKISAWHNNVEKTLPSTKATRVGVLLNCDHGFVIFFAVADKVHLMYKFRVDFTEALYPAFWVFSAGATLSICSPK

B1: Glutathione-S-transferase (GST)-NS1 fusion protein (PR8) (natural protein)
chain: MDPNTVSSFQVDCFLWHVRKRVADQELGDAPFLDRLRRDQKSLRGRGSTLGLDIETATRAGKQIVERILKEESDEALKMTMASVPASRYLTDMTLEEMSRDWSMLIPKQKVAGPLCIRMDQAIMDKNIILKANFSVIFDRLETLILLRAFTEEGAIVGEISPLPSLPGHTAEDVKNAVGVLIGGLEWNDNTVRVSETLQRFAWRSSNENGRPPLTPKQKREMAGTIRSEV
notes: source: bacteria, purified
B1: the binding result is listed as “binds”.
